Experimental data from patent US20260061022A1 (GI INNOVATION, published 2026).

T1: IgG Fc gamma receptor IIA (UniProt P12318 36-218, limits assumed)
T1 construct: Bought recombinant protein immobilised on an AR2G biosensor; also called FcγRIIA
T1 sequence (looked up): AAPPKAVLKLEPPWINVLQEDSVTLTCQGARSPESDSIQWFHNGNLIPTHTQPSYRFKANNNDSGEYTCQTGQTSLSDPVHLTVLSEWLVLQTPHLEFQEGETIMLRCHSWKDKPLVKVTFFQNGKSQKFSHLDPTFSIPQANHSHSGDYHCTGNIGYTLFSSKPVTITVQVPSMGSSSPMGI

T2: IgG Fc gamma receptor IIB (UniProt P31994 46-217, limits assumed)
T2 construct: Bought recombinant protein immobilised on an AR2G biosensor; also called FcγRIIB
T2 sequence (looked up): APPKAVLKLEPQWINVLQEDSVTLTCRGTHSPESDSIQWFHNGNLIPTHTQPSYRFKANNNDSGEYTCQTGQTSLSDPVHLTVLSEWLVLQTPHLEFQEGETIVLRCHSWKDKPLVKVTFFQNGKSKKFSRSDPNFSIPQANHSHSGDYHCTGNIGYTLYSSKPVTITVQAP

T3: IgE (Homo sapiens (Human), UniProt P01854 1-427)
T3 construct: also called immunoglobulin E
T3 constant: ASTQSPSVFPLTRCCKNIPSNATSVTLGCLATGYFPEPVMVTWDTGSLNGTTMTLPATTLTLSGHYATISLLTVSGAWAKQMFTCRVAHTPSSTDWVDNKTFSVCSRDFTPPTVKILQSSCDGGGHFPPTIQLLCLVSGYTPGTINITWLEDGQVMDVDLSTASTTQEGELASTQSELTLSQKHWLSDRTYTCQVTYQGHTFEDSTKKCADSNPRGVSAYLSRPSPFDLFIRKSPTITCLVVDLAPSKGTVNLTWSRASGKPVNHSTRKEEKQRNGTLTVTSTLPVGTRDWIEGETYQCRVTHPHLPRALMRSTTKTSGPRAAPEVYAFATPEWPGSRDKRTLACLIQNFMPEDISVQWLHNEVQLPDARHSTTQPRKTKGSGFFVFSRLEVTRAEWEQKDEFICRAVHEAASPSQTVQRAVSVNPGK


Assays:
[1] = molecular target: T1, IgG Fc gamma receptor IIA; assay: BLI (Octet RED384), FcγRIIA immobilised on AR2G biosensor, IgETRAP in solution
Description: (§1) Specifically, FcγRI, FcγRIIA, FcγRIIB, FcγRIIIA, and FcγRIIIB recombinant proteins (R & D Systems Inc., 5 μg/ml) which are Fc gamma receptors were immobilized in 300 mM acetate buffer (pH 5) on the activated AR2G biosensor. As a running buffer, PBS containing 0.1% Tween-20 and 1% bovine serum was used. All measurements were carried out at 30° C. with a sample plate shaker at a rate of 1,000 rpm.

[2] = molecular target: T2, IgG Fc gamma receptor IIB; assay: BLI (Octet RED384), FcγRIIB immobilised on AR2G biosensor, IgETRAP in solution
Description: as §1

IgE [3] = molecular target: T3, IgE; assay: SPR (ProteOn XPR36), IgE coated on the GLC sensor chip, IgETRAP flowed at 0, 3.2, 6.3, 12.5, 25 and 50 nM
IgE [4] = molecular target: T3, IgE; assay: SPR, ProteOn XPR36, IgE coated on GLC chip, analyte flowed
Description: (§2) Here, the experiments were conducted by identifying zero base using 25 mM NaOH as a regeneration buffer, and then repeating the above steps. Thereafter, a binding curve was identified using a protein binding analyzer (ProteOn XPR36, Bio-Rad Laboratories, Inc., USA).

human IgE = human IgE (human, UniProt P01854-1 1-428); assay: cell-based or functional assay
[5] = molecular target: T4, IgG Fc gamma receptor IIIB (UniProt O75015 20-208, limits assumed); assay: BLI response at 4 uM, FcγRIIIB immobilised on AR2G biosensor
T4 construct: Bought recombinant protein immobilised on an AR2G biosensor; also called FcγRIIIB
Description: as §1

IgG Fc gamma receptor I = molecular target: T5, IgG Fc gamma receptor I (UniProt P12314 16-288); assay: BLI (Octet RED384), FcγRI immobilised on AR2G biosensor, IgETRAP in solution
T5 construct: Bought recombinant protein immobilised on an AR2G biosensor; also called FcγRI
Description: as §1

IgE [6] = molecular target: T3, IgE; assay: kinetic binding measurement of Table 3, KD against omalizumab as reference; the end is tied to FcεRIαECD-Fc2ST by 'exhibits the highest IgE-binding affinity which is 69-fold higher than omalizumab'
Description: as §2

[7] = molecular target: IgE (Experimental Example 4); assay: cell-based or functional assay

T4 sequence (O75015 20-208 limits assumed): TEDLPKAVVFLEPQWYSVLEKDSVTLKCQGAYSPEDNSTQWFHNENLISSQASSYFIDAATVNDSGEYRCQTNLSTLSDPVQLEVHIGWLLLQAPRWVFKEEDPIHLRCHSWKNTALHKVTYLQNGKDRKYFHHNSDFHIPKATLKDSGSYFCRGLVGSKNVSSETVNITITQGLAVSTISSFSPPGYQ
T5 sequence (P12314 16-288 limits assumed): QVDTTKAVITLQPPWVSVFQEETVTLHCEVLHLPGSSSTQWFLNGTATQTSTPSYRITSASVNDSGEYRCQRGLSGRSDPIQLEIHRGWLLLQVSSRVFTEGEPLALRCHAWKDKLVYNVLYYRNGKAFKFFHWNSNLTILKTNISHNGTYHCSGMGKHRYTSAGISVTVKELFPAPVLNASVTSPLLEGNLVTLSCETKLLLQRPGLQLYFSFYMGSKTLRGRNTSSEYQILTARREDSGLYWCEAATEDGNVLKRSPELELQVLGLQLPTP

Row | Binder | binding result [1] | binding result [2] | Kd (IgE [3]) [nM] | fold better KD than omalizumab (IgE [4]) [fold] | fold better kd than omalizumab (IgE [4]) [fold] | fold weaker ka than omalizumab (IgE [4]) [fold] | IC50, inhibition of β-hexosaminidase secretion by human FcεRI-expressing mouse bone marrow-derived mast cells (human IgE) [µg/mL] | fold higher inhibitory ability on mast cell activity than Xolair (human IgE) [fold] | binding result [5] | binding result (IgG Fc gamma receptor I) | fold change of equilibrium dissociation constant (KD) against omalizumab (printed as 'higher'; meant as higher affinity) (IgE [6]) [fold] | IC50 (read off the curve); inhibition ratio (%) of beta-hexosaminidase release from mouse bone marrow-derived mast cells, dimer pre-mixed with IgE at 1 ug/mL [7] [µg/mL]
1 | FcεRIαECD-Fc2ST (Fc fusion, sialic acid added to the glycans by co-expressed α-2,6-sialic acid transferase, Homodimer; also called IgETRAP; FcεRIαECD-Fc2 + a2,6-ST) VPQKPKVSLNPPWNRIFKGENVTLTCNGNNFFEVSSTKWFHNGSLSEETNSSLNIVNAKFEDSGEYKCQHQQVNESEPVYLEVFSDWLLLQASAEVVMEGQPLFLRCHGWRNWDVYKVIYYKDGEALKYWYENHNISITNATVEDSGTYYCTGKVWQLDYESEPLNITVIKAPREKYWLQRNTGRGGEEKKGSKEKEEQEERETKTPECPSHTQPLGVFLFPPKPKDTLMISRTPEVTCVVVDVSQEDPEVQFNWYVDGVEVHNAKTKPREEQFNSTYRVVSVLTVLHQDWLNGKEYKCKVSNKGLPSSIEKTISKAKGQPREPQVYTLPPSQEEMTKNQVSLTCLVKGFYPSDIAVEWESNGQPENNYKTTPPVLDSDGSFFLYSRLTVDKSRWQEGNVFSCSVMHEALHNHYTQKSLSLSLGK | no binding (tested: 4 uM) | no binding (tested: 4 uM) | 0.215 | 69 | 106 | 1.5 | ~0.0112 | 58 | no binding (tested: 4 uM) | no binding (tested: 4 uM) | 22 to 69 | ~0.5
2 | FcεRIαECD-Fc2 (Fc fusion, Made in CHO DG44 cells without the sialic acid transferase; Homodimer joined through the hinge cysteine; also called polypeptide dimer) VPQKPKVSLNPPWNRIFKGENVTLTCNGNNFFEVSSTKWFHNGSLSEETNSSLNIVNAKFEDSGEYKCQHQQVNESEPVYLEVFSDWLLLQASAEVVMEGQPLFLRCHGWRNWDVYKVIYYKDGEALKYWYENHNISITNATVEDSGTYYCTGKVWQLDYESEPLNITVIKAPREKYWLQRNTGRGGEEKKGSKEKEEQEERETKTPECPSHTQPLGVFLFPPKPKDTLMISRTPEVTCVVVDVSQEDPEVQFNWYVDGVEVHNAKTKPREEQFNSTYRVVSVLTVLHQDWLNGKEYKCKVSNKGLPSSIEKTISKAKGQPREPQVYTLPPSQEEMTKNQVSLTCLVKGFYPSDIAVEWESNGQPENNYKTTPPVLDSDGSFFLYSRLTVDKSRWQEGNVFSCSVMHEALHNHYTQKSLSLSLGK | – | – | – | 38 | 73 | 1.9 | – | – | – | – | – | –
3 | FcεRIαECD-Fc3 (Fc fusion, Made in CHO DG44 cells without the sialic acid transferase; Homodimer; also called polypeptide dimer) VPQKPKVSLNPPWNRIFKGENVTLTCNGNNFFEVSSTKWFHNGSLSEETNSSLNIVNAKFEDSGEYKCQHQQVNESEPVYLEVFSDWLLLQASAEVVMEGQPLFLRCHGWRNWDVYKVIYYKDGEALKYWYENHNISITNATVEDSGTYYCTGKVWQLDYESEPLNITVIKAPREKYWLQAQPQAEGSLAKATTAPATTRNTGRGGEEKKGSKEKEEQEERETKTPECPSHTQPLGVFLFPPKPKDTLMISRTPEVTCVVVDVSQEDPEVQFNWYVDGVEVHNAKTKPREEQFNSTYRVVSVLTVLHQDWLNGKEYKCKVSNKGLPSSIEKTISKAKGQPREPQVYTLPPSQEEMTKNQVSLTCLVKGFYPSDIAVEWESNGQPENNYKTTPPVLDSDGSFFLYSRLTVDKSRWQEGNVFSCSVMHEALHNHYTQKSLSLSLGK | – | – | – | 22 | 45 | 2 | – | – | – | – | – | –
4 | FcεRIαECD-Fc3ST (Fc fusion, sialic acid added to the glycans by co-expressed α-2,6-sialic acid transferase, Homodimer; also called FcεRIαECD-Fc3 + a2,6-ST; polypeptide dimer) VPQKPKVSLNPPWNRIFKGENVTLTCNGNNFFEVSSTKWFHNGSLSEETNSSLNIVNAKFEDSGEYKCQHQQVNESEPVYLEVFSDWLLLQASAEVVMEGQPLFLRCHGWRNWDVYKVIYYKDGEALKYWYENHNISITNATVEDSGTYYCTGKVWQLDYESEPLNITVIKAPREKYWLQAQPQAEGSLAKATTAPATTRNTGRGGEEKKGSKEKEEQEERETKTPECPSHTQPLGVFLFPPKPKDTLMISRTPEVTCVVVDVSQEDPEVQFNWYVDGVEVHNAKTKPREEQFNSTYRVVSVLTVLHQDWLNGKEYKCKVSNKGLPSSIEKTISKAKGQPREPQVYTLPPSQEEMTKNQVSLTCLVKGFYPSDIAVEWESNGQPENNYKTTPPVLDSDGSFFLYSRLTVDKSRWQEGNVFSCSVMHEALHNHYTQKSLSLSLGK | – | – | – | 24 | 40 | 1.7 | – | – | – | – | – | –
